# Values of other authors in article PMC5487894.
# Where two headings read alike, the source gives them in different places.
# Assays:
# Rab5 (Homo sapiens) = Rab5 (Homo sapiens) (UniProt P20339)
# Rac (Homo sapiens) [1] = molecular target: Rac (Homo sapiens) (UniProt P63000)
# Rac (Homo sapiens) [2] = molecular target: Rac (Homo sapiens) (UniProt P63000); remark: listed apart in the source
# [3] = molecular target: CDC12 20-40 (Schizosaccharomyces pombe) (UniProt Q10059)
# Sequence of UniProt Q10059 (Q10059 20-40): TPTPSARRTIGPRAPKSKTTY
# Sequence of UniProt P20339 (P20339 whole entry): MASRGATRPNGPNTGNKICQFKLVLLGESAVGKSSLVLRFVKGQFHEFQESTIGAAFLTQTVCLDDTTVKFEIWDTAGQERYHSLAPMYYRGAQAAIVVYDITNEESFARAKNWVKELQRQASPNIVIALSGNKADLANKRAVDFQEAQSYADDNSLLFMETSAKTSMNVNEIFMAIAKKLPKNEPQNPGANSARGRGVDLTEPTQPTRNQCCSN
substance,measurement,setting,value
APPL1 BAR-PH (from UniProt Q9UKG1),Kd,Rab5 (Homo sapiens),900 nM
IRSp53 RCB domain (from UniProt Q9UQB8),Kd,Rac (Homo sapiens) [1],20000 nM
same,Kd,Rac (Homo sapiens) [2],3000 nM
CDC15 F-BAR (from UniProt Q09822),Kd,[3],2 nM
